Assay results as given in patent EP4755915A1 (Medytox Inc., dated 2026).

Tests used:
[1] = molecular target: T1, fetal acetylcholine receptor (AChR) on the cell membrane of TE671 cells (human, UniProt P02708 21-457; P11230 24-501; Q07001 22-517; P07510 23-517); experiment: flow cytometry competition on TE671 cells expressing fetal AChR; competitor biotinylated mAb637 at 8 µg/ml, detected with labelled streptavidin
T1 construct: whole, on cells; The subunit make-up (alpha2, beta, gamma, delta) is general knowledge of the fetal receptor; also called autoantigen AChR
T1 sequence (P02708 21-457, chain 1 of 4): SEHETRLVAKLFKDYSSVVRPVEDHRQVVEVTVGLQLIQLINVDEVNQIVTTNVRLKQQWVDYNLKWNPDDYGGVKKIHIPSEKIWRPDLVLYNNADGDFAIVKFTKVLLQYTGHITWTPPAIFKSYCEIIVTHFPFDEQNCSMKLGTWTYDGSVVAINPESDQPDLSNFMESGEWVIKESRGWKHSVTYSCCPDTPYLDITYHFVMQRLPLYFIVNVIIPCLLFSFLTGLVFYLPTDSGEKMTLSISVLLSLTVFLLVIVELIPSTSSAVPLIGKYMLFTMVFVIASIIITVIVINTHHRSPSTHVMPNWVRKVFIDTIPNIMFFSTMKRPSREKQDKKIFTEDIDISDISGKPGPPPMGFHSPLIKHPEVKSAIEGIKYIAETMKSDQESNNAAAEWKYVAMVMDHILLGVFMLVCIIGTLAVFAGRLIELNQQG
T1 sequence (P11230 24-501, chain 2 of 4): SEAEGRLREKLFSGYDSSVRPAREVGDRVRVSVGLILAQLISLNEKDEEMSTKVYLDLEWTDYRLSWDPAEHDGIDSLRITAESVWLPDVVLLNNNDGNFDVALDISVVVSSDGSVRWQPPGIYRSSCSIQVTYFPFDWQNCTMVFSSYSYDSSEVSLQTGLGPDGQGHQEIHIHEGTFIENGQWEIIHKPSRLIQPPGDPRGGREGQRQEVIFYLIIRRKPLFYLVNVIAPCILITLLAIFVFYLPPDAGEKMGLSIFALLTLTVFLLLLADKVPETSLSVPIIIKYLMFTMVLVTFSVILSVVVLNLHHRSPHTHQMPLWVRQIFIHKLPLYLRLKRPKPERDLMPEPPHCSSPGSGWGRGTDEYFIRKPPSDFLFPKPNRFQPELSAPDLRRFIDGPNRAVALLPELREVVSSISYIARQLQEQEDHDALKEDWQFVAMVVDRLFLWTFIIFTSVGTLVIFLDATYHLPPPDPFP
T1 sequence (Q07001 22-517, chain 3 of 4): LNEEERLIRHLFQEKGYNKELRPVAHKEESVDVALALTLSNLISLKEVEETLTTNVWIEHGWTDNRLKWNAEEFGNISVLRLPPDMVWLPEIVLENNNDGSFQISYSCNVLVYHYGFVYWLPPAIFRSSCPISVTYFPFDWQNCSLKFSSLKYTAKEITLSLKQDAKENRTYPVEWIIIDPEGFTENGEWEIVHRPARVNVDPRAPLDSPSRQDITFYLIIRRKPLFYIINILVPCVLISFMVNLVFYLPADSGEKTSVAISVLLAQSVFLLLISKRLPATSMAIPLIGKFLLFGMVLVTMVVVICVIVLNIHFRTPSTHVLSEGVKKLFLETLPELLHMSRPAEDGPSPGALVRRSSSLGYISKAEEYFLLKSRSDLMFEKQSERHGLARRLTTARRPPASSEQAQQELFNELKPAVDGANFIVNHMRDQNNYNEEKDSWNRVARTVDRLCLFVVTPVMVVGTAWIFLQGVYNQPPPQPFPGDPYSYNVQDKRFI
T1 sequence (P07510 23-517, chain 4 of 4): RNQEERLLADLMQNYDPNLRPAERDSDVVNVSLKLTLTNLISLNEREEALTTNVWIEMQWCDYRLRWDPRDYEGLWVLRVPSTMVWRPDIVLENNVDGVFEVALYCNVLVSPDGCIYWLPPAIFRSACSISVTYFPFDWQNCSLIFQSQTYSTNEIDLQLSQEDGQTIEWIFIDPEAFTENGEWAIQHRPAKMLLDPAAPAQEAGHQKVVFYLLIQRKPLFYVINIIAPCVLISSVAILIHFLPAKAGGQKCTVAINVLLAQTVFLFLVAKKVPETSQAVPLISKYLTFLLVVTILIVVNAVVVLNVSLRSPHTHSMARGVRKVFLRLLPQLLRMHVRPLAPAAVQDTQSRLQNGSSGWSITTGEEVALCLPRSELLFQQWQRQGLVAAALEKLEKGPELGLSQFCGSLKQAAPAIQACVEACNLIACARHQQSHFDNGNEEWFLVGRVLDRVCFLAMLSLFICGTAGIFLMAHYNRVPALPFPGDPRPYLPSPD

[2] = molecular target: AChR (A, B, D and E) expressed on recombinant 293T cells; experiment: cell-based or functional assay

Binder	binding result [1]	decrease of apoptosis (CDC cell death) caused by humanized mAb35, at 0.15 µg/ml [2]	decrease of the ratio of C5b-9 positive cells caused by humanized mAb35, at 0.15 µg/ml [2]
mAb637 B (antibody, human IgG2, kappa, also called candidate antibody) heavy: NFELTQPHSVSESPGKTVTISCTRSSGSIASNYVQWYQQRPGSSPTTVIYEDNQRPSGVPDRFSGSIDSSSNSASLTISGLKTEDEADYYCQSYDSNSGGRVFGGGTKLTVLRTVAAPSVFIFPPSDEQLKSGTASVVCLLNNFYPREAKVQWKVDNALQSGNSQESVTEQDSKDSTYSLSSTLTLSKADYEKHKVYACEVTHQGLSSPVTKSFNRGECERKCCVECPPCPAPPVAGPSVFLFPPKPKDTLMISRTPEVTCVVVDVSQEDPEVQFNWYVDGVEVHNAKTKPREEQFNSTYRVVSVLTVLHQDWLNGKEYKCKVSNKGLPSSIEKTISKAKGQPREPQVYTLPPSQEEMTKNQVSLTCLVKGFYPSDIAVEWESNGQPENYKTTPPVLDSDGSFFLYSRLTVDKSRWQEGNVFSCSVMHEALHNHYTQKSLSLSLGK light: QVQLLESGGGLVKPGGSLRLSCAASGFKSTDYYMAWVRQAPGRGLEWVSFISGRVFTNYTASVRGRFTVFREDDNTSVYLQMSRLRVEDTAVYYCARLRGIFRGPLKPLEYYFDLWGRGTLVTVSSASTKGPSVFPLAPCSRSTSESTAALGCLVKDYFPEPVTVSWNSGALTSGVHTFPAVLQSSGLYSLSSVVTVPSSNFGTQTYTCNVDHKPSNTKVDKTV	binds	–	–
mAb192 C IgG2/4 (antibody) heavy: DIQMTQSPPSLSASLGDKVTITCQASQDINKYIAWYQQKPGKAPRQLIRYTSILVLGTPSRFSGSGSGRDFSFSISNVASEDIASYYCLQYGNLYTFGAGTKLEIKRSSASTKGPSVFPLAPCSRSTSESTAALGCLVKDYFPEPVTVSWNSGALTSGVHTFPAVLQSSGLYSLSSVVTVPSSNFGTQTYTCNVDHKPSNTKVDKTVERKCCVECPPCPAPPVAGPSVFLFPPKPKDTLMISRTPEVTCVVVDVSQEDPEVQFNWYVDGVEVHNAKTKPREEQFNSTYRVVSVLTVLHQDWLNGKEYKCKVSNKGLPSSIEKTISKAKGQPREPQVYTLPPSQEEMTKNQVSLTCLVKGFYPSDIAVEWESNGQPENYKTTPPVLDSDGSFFLYSRLTVDKSRWQEGNVFSCSVMHEALHNHYTQKSLSLSLGK light: QVQLLESGPGLVQPSQTLSLTCTVSGFSLTTNGVSWVRQPPGKGLEWIAAISSGGSPYYNSALKSRLSINRDTSKSQVFLKMNSLQTEDTAIYFCTREDGWNYFDYWGPGTMVTVSSASVAAPSVFIFPPSDEQLKSGTASVVCLLNNFYPREAKVQWKVDNALQSGNSQESVTEQDSKDSTYSLSSTLTLSKADYEKHKVYACEVTHQGLSSPVTKSFNRGEC	–	> 37%	> 60%
mAb192 C IgG1 (antibody) heavy: not shown light: QVQLLESGPGLVQPSQTLSLTCTVSGFSLTTNGVSWVRQPPGKGLEWIAAISSGGSPYYNSALKSRLSINRDTSKSQVFLKMNSLQTEDTAIYFCTREDGWNYFDYWGPGTMVTVSSASVAAPSVFIFPPSDEQLKSGTASVVCLLNNFYPREAKVQWKVDNALQSGNSQESVTEQDSKDSTYSLSSTLTLSKADYEKHKVYACEVTHQGLSSPVTKSFNRGEC	–	> 37%	> 60%
mAb192 C IgG4 (antibody) heavy: not shown light: QVQLLESGPGLVQPSQTLSLTCTVSGFSLTTNGVSWVRQPPGKGLEWIAAISSGGSPYYNSALKSRLSINRDTSKSQVFLKMNSLQTEDTAIYFCTREDGWNYFDYWGPGTMVTVSSASVAAPSVFIFPPSDEQLKSGTASVVCLLNNFYPREAKVQWKVDNALQSGNSQESVTEQDSKDSTYSLSSTLTLSKADYEKHKVYACEVTHQGLSSPVTKSFNRGEC	–	> 37%	> 60%
